Experimental data taken from PMC8376870 (2021).

Molecular target: GST-G511-V540 (TRPV6 S5 fragment) (Homo sapiens (Human), UniProt Q9H1D0)
Test: in vitro pull-down (GST/His-MBP) with western blot

Sequence of GST-G511-V540 (TRPV6 S5 fragment) (Q9H1D0 511-540): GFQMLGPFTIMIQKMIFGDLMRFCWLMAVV

B1: His-MBP-A603-L632 (TRPV6 S6 fragment) (protein)
chain: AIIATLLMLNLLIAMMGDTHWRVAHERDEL
- binding result: binds
